The EC50 is the concentration at which the effect is half-maximal. For orientation: IC50 means the concentration that inhibits the measured activity by half. The low end stands for greater potency in that assay, the high end for weaker potency in that assay. As a reminder, the Kd is the free concentration of one partner at which half of the binding sites on the other are occupied at equilibrium, for simple one-to-one binding. Usually koff stands for the rate constant with which the complex falls apart. One may read the kon as a measure of how fast the partners come together.

Test [1] concerns the target T1, human CD200R1 isoform a on CHOK1 cells (CHOK1/hCD200R1a) (human, UniProt Q8TD46 25-348).
T1 construct: also called CHOK1/CD200R1a
T1 sequence: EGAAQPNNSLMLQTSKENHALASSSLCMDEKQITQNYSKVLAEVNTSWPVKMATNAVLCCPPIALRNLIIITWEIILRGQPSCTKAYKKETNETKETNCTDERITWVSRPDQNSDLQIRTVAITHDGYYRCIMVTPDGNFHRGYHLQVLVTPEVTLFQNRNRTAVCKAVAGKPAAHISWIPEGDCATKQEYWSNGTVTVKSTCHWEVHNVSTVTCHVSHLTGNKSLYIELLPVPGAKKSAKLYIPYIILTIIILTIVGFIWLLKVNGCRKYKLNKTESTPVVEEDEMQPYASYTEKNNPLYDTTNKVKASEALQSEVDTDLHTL
Put plainly: flow cytometry blocking assay: antibody titrated against biotin-labelled human CD200 binding to CHOK1/hCD200R1a cells; head prints EC50 without unit, x axis Log [Ab] (nM), y axis Inhibition %. The protocol: (§1) In brief, CHOK1/hCD200R1a cells were digested and resuspended in 2% BSA in PBS. […] The cells were placed at 4° C. and incubated for 1 hour in the dark. […] 100 μL/well of pre-cooled PBS containing 2% BSA was added to rinse the cells twice, centrifugation was performed at 500 g, 4° C. for 5 minutes, and the supernatant was discarded. Fluorescent secondary antibody (PE Streptavidin, BD, Cat #: 554061, 1:200) was added at 100 μL/well, and incubation was performed at 4° C. for 30 minutes in the dark. The cells were washed twice with 200 μL/well of pre-cooled PBS, and were centrifuged at 500 g, 4° C. for 5 minutes, and the supernatant was discarded. Finally, 200 μL/well of pre-cooled PBS was used to resuspend the cells, and the fluorescence signal values were read using ACEA Novocyte 3000 flow cytometer. IC50 values were calculated.
Background: In flow cytometry, cells or beads pass a laser one at a time.

Test [2] concerns the target T1, human CD200R1 isoform a on CHOK1 cells …. Put plainly: flow cytometry, CHOK1/hCD200R1a cells (FITC-Mean); table beside the curves. As to the method: (§2) This example is intended to investigate the in vitro binding activity of human anti-CD200R1 monoclonal antibodies to human/Cynomolgus macaques CD200R1a expressed on the surface of cells. The anti-CD200R1 antibodies were produced as described in Example 3.4 and the binding experiments at the cell level were performed using CHOK1/hCD200R1a and CHOK1-cynoCD200R1a.
(§3) Briefly, CHOK1/hCD200R1a cells and CHOK1-cynoCD200R1a cells were digested, and collected, and then were resuspended in PBS containing 2% BSA, respectively. The cell density was adjusted to 1×10⁶ cells/mL. The cells were seeded in a 96-well V-bottom plate (Corning, #3894) at 100 μL/well, followed by the addition of test antibodies and reference antibodies in a series diluted concentration, each at 100 μL/well. The cells were incubated away from light at 4° C. for 1 h. Thereafter, the cells in each well were rinsed twice with 100 μL of pre-cooled PBS containing 2% BSA, and centrifuged at 500 g at 4° C. for 5 min, and then the supernatant was discarded. 100 μL of fluorescent secondary antibody (Alexa Fluor 488-conjugated AffiniPure Goat Anti-Human IgG, Fcγ Fragment Specific, Jackson, #109-545-098, diluted in a 1:1000 ratio) was added in each well, and the plate was incubated away from light at 4° C. for 1 h. The cells in each well were rinsed twice with 100 μL of pre-cooled PBS containing 2% BSA, and centrifuged at 500 g at 4° C. for 5 min, and then the supernatant was discarded. Finally, the cells in each well were resuspended in 200 μL of pre-cooled PBS containing 2% BSA, and the fluorescence signal values were read using a BD CantoII flow cytometer.

The target in test [3] is T2, Cynomolgus macaques CD200R1 isoform a on CHOK1 cells (CHOK1/cynoCD200R1a) (Cynomolgus macaques).
T2 chain: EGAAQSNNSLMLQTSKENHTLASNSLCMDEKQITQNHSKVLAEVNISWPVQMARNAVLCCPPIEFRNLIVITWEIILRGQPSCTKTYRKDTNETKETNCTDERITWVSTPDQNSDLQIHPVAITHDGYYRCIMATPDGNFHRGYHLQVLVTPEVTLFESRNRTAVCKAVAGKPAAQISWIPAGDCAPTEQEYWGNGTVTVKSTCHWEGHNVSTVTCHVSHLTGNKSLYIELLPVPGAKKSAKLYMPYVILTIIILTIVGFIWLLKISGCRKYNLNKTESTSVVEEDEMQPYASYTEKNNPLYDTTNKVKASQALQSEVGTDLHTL
The test can be described thus: flow cytometry, CHOK1/cynoCD200R1a cells (APC-A Mean); table beside the curves.

Test [4] addresses T3, CD200R1a on PathHunter Jurkat CD200R1a signaling cells (Eurofins DiscoverX, 93-1136C19) (human, UniProt Q8TD46 25-348).
T3 sequence: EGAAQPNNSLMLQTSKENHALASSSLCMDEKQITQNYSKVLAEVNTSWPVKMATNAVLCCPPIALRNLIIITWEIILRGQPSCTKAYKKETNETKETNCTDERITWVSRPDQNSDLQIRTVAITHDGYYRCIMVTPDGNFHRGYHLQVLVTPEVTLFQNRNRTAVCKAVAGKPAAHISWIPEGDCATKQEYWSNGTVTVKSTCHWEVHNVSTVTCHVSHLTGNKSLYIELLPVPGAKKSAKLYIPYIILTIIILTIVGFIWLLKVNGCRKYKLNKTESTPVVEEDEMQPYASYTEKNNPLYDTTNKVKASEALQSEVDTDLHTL
The test can be described thus: cell-based or functional assay.

Test [5] addresses T1, human CD200R1 isoform a on CHOK1 cells …. The test can be described thus: flow cytometry, CHOK1/hCD200R1a cells (FITC-Mean); table beside the curves, head without unit, x axis Log [Ab] (nM).
For test [6] the target is unchanged. Put plainly: flow cytometry blocking assay: biotin-labelled human CD200 binding to CHOK1/hCD200R1a cells; y axis Inhibition %. The protocol:
as §1

For test [7], the target named is T3, CD200R1a on PathHunter Jurkat CD200R1a …. Put plainly: cell-based or functional assay. The source holds these as a separate data set.
In test [8] the target is T1, human CD200R1 isoform a on CHOK1 cells …. The test can be described thus: flow cytometry, CHOK1/hCD200R1a cells; table beside the curves, head without unit, x axis Log [Ab] (nM). The protocol: as §2, §3
Test [9] shares this target. The test can be described thus: flow cytometry blocking assay: antibody titrated against biotin-labelled human CD200 binding to CHOK1/hCD200R1a cells. The protocol:
To study the activity of human anti-CD200R1 antibodies in blocking the binding of human CD200 to its receptor CD200R1a in vitro, CHOK1/hCD200R1a was used to perform cell-level human CD200/human CD200R1a binding and blocking experiments.
as §1

Test [10] addresses T4, human CD200R1a protein (soluble recombinant) (human, UniProt Q8TD46 29-265).
T4 construct: Soluble protein used in BLI; also called human CD200R1 isoform a; not shown: His tag implied by capture on anti-Penta-HIS biosensors
T4 sequence: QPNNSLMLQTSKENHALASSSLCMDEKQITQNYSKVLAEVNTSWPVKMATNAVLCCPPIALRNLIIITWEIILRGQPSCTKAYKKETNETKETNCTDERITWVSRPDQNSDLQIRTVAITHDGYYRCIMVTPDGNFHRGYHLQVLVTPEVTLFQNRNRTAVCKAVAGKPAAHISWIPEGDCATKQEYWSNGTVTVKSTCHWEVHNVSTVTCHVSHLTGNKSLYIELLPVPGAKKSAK
Put plainly: BLI (Octet), antibody captured on anti-human Fc sensor, soluble CD200R1a as analyte, 1:1 fit. The protocol: (§4) To determine the binding affinities of the anti-CD200R1 antibodies to CD200R1a proteins of various species (mouse, human, Cynomolgus macaques), bio-layer interferometry (BLI) assays were carried out using an Octet® RED96e instrument. Antibodies were produced as described in Example 3.4 and diluted to 5 μg/mL using freshly prepared 1× kinetic buffer (10× kinetic buffer (Catalog #18-1105, ForteBio) was diluted with PBS(Catalog #E607016-0500, BBI Life Sciences)) and were captured on the surface of anti-human Fc (AHC) Octet biosensors (Catalog #18-5060, ForteBio) to reach capture levels between 0.9-1.2 nm. The biosensors having the captured anti-CD200R1 antibodies were then dipped in wells containing 2-fold serial dilutions of CD200R1a proteins to detect association signals, followed by dissociation steps in wells containing 1× kinetic buffer. The sensorgrams were recorded and the reference signals were subtracted before curve fitting using ForteBio Data Analysis 11.0 software. Association rates (kₒₙ) and dissociation rates (koff) were calculated using a simple one-to-one Langmuir binding model. The equilibrium dissociation constant (KD) was calculated as the ratio of koff/kₒₙ.
A general note: Biolayer interferometry detects binding as a change in optical thickness at a sensor tip.

The target in test [11] is T3, CD200R1a on PathHunter Jurkat CD200R1a …. The test can be described thus: cell-based or functional assay. The source holds these as a separate data set.
Test [12] concerns the target T5, Mouse CD200R1-His (mouse, UniProt Q9ES57 26-238, limits assumed).
T5 sequence (looked up): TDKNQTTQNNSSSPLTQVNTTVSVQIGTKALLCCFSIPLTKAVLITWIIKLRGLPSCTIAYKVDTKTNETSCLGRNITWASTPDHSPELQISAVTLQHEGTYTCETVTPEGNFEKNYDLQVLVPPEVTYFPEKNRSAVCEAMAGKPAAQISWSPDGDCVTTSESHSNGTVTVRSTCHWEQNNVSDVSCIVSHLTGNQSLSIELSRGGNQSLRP
The test can be described thus: BLI (Octet), antibody captured on anti-human Fc sensor. As to the method: as §4

Read-outs that look alike come from different tables or passages of the source.

B1: PR007630 (antibody, human IgG1, kappa, V domains shown)
VH: QVQLVESGGGVVQPGRSLRLSCAASGFTFSSYGFHWVRQAPGKGLEWLGIIWSDASNKYYADSVKGRFTISRDNSKNTLYLQMNSLRAEDTAVYYCARDRIVGEGFDYWGQGTLVTVSS
VL: DIVMTQSPLSLPVTPGEPASISCRSSQSLLHRSGYNYLDWYLQKPGQSPQLLIYLGSYRASGVPDRFSGSGSGTDFTLKISRVEAEDVGVYYCMQGLQTMYTFGQGTKLEIKR
notes: PTM variant of PR006839 (human IgG1)
For B1, the half-maximal effective concentration (EC50) in test [1] was 0.359 nM; in [3], 4.69 nM; in test [5], 0.313 nM. Besides, the “MFI(Max)” value in test [2] was 18900. In addition, the “MFI (MAX)” value in [3] came out at 58600. Moreover, in test [4], the “IC50 of the inhibition of CD200-induced PathHunter Jurkat CD200R1a luminescence (CHOK1/hCD200 cells as CD200 source)” value came to 0.46 nM. In addition, in test [6], the “Blocking(Max)” value turned out to be 99.9%.

B2: PR007631 (antibody, human IgG1, kappa, V domains shown)
VH: QVQLVESGGGVVQPGRSLRLSCAASGFTFSSYGFHWVRQAPGKGLEWLGLIWSDARHKDYADSVKGRFTISRDNSKNTLYLQMNSLRAEDTAVYYCARDRIVGEGFDYWGQGTLVTVSS
VL: DIVMTQSPLSLPVTPGEPASISCRSSQSLLHRSGYNYLDWYLQKPGQSPQLLIYLGSYRWSGVPDRFSGSGSGTDFTLKISRVEAEDVGVYYCMQGLQTMYTFGQGTKLEIKR
notes: as for B1
On to B2, for which the EC50 was 0.323 nM in [1], 3.63 nM in test [3] and 0.311 nM in test [5]. The “MFI(Max)” value in test [2] came out at 19400. In addition, the “MFI (MAX)” value in test [3] amounted to 51800. Besides, in [4], the “IC50 of the inhibition of CD200-induced PathHunter Jurkat CD200R1a luminescence (CHOK1/hCD200 cells as CD200 source)” value turned out to be 0.266 nM. Moreover, in test [6], the “Blocking(Max)” value was determined as 99.9%.

B3: PR007972 (antibody, human IgG1, kappa, V domains shown)
VH: QVQLVESGGGVVQPGRSLRLSCAASGFTFSYYGFHWVRQAPGKGLEWLGIIWSDASNKYYADSVKGRFTISRDNSKNTLYLQMNSLRAEDTAVYYCARDRIVGEGFDYWGQGTLVTVSS
VL: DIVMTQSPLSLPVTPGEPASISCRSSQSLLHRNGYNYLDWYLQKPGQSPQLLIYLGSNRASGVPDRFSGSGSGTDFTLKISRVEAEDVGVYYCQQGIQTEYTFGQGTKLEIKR
notes: as for B1
For B3, the EC50 in test [1] is 0.158 nM; in [3] it was 4.48 nM; in test [5] it was 0.19 nM. The “MFI(Max)” value in [2] worked out at 19000. Further, in test [3], the “MFI (MAX)” value was determined as 51200. Further, the “Blocking(Max)” value in [6] turned out to be 99.9%. The “IC50 of the inhibition of CD200-induced PathHunter Jurkat CD200R1a luminescence (CHOK1/hCD200 cells as CD200 source)” value in test [7] came out at 0.368 nM.

B4: PR006475 (antibody, human IgG1, kappa, L234A L235A, V domains shown)
VH: QVQLQESGPGLVKPSGTLSLTCAVSGASISSGHWWSWVRQPPGKGLEWIGEIYHSGSTNYTPSLKSRVTISVDKSKNQFSLKLTSVTAADTAVYYCAREASYHYGSGSYYTPFDFWGQGTLVTVSS
VL: EIVLTQSPATLSVSPGERATLSCRASQSVSSNLAWYQQKPGQAPRLLIYGASTRATGIPARFSGSGSGTEFTLTISSLQSEDFALYYCQQYNNWIIFGQGTRLEIKR
B4 displayed an EC50 in test [8] of 6.97 nM. For the same molecule, in test [9], the “Blocking (Max %)” value was 110% and the IC50 was found to be 32.2 nM. Moreover, in [10], the Kd was 12.8 nM, the koff came to 0.000376 s⁻¹ and the kon was found to be 29400 M⁻¹ s⁻¹. In addition, in [11], the “IC50 of the inhibition of CD200-induced PathHunter Jurkat CD200R1a luminescence (CHOK1/hCD200 cells as CD200 source); head without unit, x axis Log [Ab] (nM)” value turned out to be 10.6 nM. For the same molecule, in test [12], the binding result is “no binding”.

Source of the values: US20250313626A1 (HARBOUR BIOMED SHANGHAI, published 2025).
